Test results as given in article PMC4926278.

What was measured:
[1] = biological target: Vpu-S52/56D, full-length Vpu (NL4-3) double mutant (HIV-1 strain NL4-3); assay: SEC; time-dependent SEC from a stock solution over up to 12 days in 50 mM NaCl buffer; peak area P1/(P1+P2) over time fitted with a logistic growth function (dimer to higher oligomer)
[2] = biological target: Vpu-S52/56N, full-length Vpu (NL4-3) double mutant (HIV-1 strain NL4-3); assay: as above

| Substance | growth rate c of the higher oligomer (logistic fit of P1/(P1+P2) over time) [1] | growth rate c of the higher oligomer (logistic fit of P1/(P1+P2) over time) [2] |
| --- | --- | --- |
| Vpu-S52/56D, full-length Vpu (NL4-3) double mutant (natural protein) | 0.56 day^−1 |  |
| Vpu-S52/56N, full-length Vpu (NL4-3) double mutant (natural protein) |  | 1.05 day^−1 |
